The labels stand for the following.
B1: speckle-type POZ protein (SPOP) WT, residues 28-359 (domain or fragment)
chain: KVVKFSYMWTINNFSFCREEMGEVIKSSTFSSGANDKLKWCLRVNPKGLDEESKDYLSLYLLLVSCPKSEVRAKFKFSILNAKGEETKAMESQRAYRFVQGKDWGFKKFIRRDFLLDEANGLLPDDKLTLFCEVSVVQDSVNISGQNTMNMVKVPECRLADELGGLWENSRFTDCCLCVAGQEFQAHKAILAARSPVFSAMFEHEMEESKKNRVEINDVEPEVFKEMMCFIYTGKAPNLDKMADDLLAAADKYALERLKVMCEDALCSNLSVENAAEILILADLHSADQLKTQAVDFINYHASDVLETSGWKSMVVSHPHLVAEAYRSLASA
B4: SPOP R354H, residues 28-359 (domain or fragment)
chain: KVVKFSYMWTINNFSFCREEMGEVIKSSTFSSGANDKLKWCLRVNPKGLDEESKDYLSLYLLLVSCPKSEVRAKFKFSILNAKGEETKAMESQRAYRFVQGKDWGFKKFIRRDFLLDEANGLLPDDKLTLFCEVSVVQDSVNISGQNTMNMVKVPECRLADELGGLWENSRFTDCCLCVAGQEFQAHKAILAARSPVFSAMFEHEMEESKKNRVEINDVEPEVFKEMMCFIYTGKAPNLDKMADDLLAAADKYALERLKVMCEDALCSNLSVENAAEILILADLHSADQLKTQAVDFINYHASDVLETSGWKSMVVSHPHLVAEAYHSLASA

Data set [1] deals with the molecule itself. The experiment in a line: composite-gradient multiangle light scattering.
Data set [2] deals with B1. The data set is described as follows: fluorescence polarisation.
Data set [3] deals with SPOP R221C, residues 28-359 (UniProt O43791 28-359, R221C). The experiment in a line: fluorescence polarisation.
Data set [4] addresses B4. The data set is described as follows: fluorescence polarisation. (In general: Fluorescence polarisation rises when a labelled molecule tumbles more slowly, as on binding a larger partner.)
For data set [5], the target named is SPOP mutBACK (Y353E), residues 28-359 (UniProt O43791 28-359, Y353E). The data set is described as follows: fluorescence polarisation.

B1: in data set [1], the affinity, expressed as Kd, was 2.7 µM.

B2: fPuc peptide (fluorescently labeled SPOP-binding motif from the substrate Puckered) (peptide)
peptide: ENLACDEVTSTTSSSST
HELM: PEPTIDE1{[O=C1OC2(c3ccc(O)cc3Oc3cc(O)ccc32)c2ccc(C(=O)[*:2])cc21].E.N.L.A.C.D.E.V.T.S.T.T.S.S.S.S.T.[am]}$$$$V2.0
SMILES: CC(C)C[C@H](NC(=O)[C@H](CC(N)=O)NC(=O)[C@H](CCC(=O)O)NC(=O)c1ccc2c(c1)C(=O)OC21c2ccc(O)cc2Oc2cc(O)ccc21)C(=O)N[C@@H](C)C(=O)N[C@@H](CS)C(=O)N[C@@H](CC(=O)O)C(=O)N[C@@H](CCC(=O)O)C(=O)N[C@H](C(=O)N[C@H](C(=O)N[C@@H](CO)C(=O)N[C@H](C(=O)N[C@H](C(=O)N[C@@H](CO)C(=O)N[C@@H](CO)C(=O)N[C@@H](CO)C(=O)N[C@@H](CO)C(=O)N[C@H](C(N)=O)[C@@H](C)O)[C@@H](C)O)[C@@H](C)O)[C@@H](C)O)C(C)C
As for B2, the Kd (usually the concentration at which binding is half-saturated) is 9.8 µM in data set [2], 5.9 µM in data set [3], 5.1 µM in data set [4] and 4.3 µM in data set [5].

B3: C-terminal intrinsically disordered region of DAXX (cDAXX), fluorescently labeled (domain or fragment)
chain: SPMSSLQISNEKNLEPGKQISRSSGEQQNKGRIVSPSLLSEEPLAPSSIDAESNGEQPEELTLEEESPVSQLFELEIEALPLDTPSSVETDISSSRKQSEEPFTTVLENGAGMVSSTSFNGGVSPHNWGDSGPPCKKSRKEKKQTGSGPLGNSYVERQRSVHEKNGKKICTLPSPPSPLASLAPVADSSTRVDSPSHGLVTSSLCIPSPARLSQTPHSQPPRPGTCKTSVATQCDPEEIIVLSDSD
modifications: fluorescently labeled (fluorescently tagged cDAXX construct; the labeling methods give Rhodamine Red, N-terminal labeling, for cDAXX)
Regarding B3, the Kd in data set [2] amounted to 1.2 µM; in data set [3] it was 3.2 µM; in data set [4] it was 3 µM.

In data set [1], B4 returned a dissociation constant Kd of 26.9 µM.

Source of the values: article PMC10696467 (The Journal of Biological Chemistry, 2023).
